Laboratory results taken from patent US20220073643A1.

molecular target: Claudin18.2-His protein (human); test: indirect ELISA on coated Claudin18.2-His

| Binder | EC50 |
| --- | --- |
| 200A4H8 (antibody, V domains shown) VH: QVQLKQSGPGLVQPSQSLSITCTVSGFSLTRYGVHWVRQSPGKGLEWLGVIWSGGNTDYNAAFISRLNIRKDNSKSQVFFKMNSLKPNDTAIYYCARAAYFGNSFDYWGQGTTLTVSS VL: DIVMTQSPSSLPVTAGEKVTMSCKSSQSLLNSGNQKNYLTWYQQKPGQPPKLLIYWASTRDSGVPDRFTGSGSGTDFTLTISSVQAEDLAVYYCQNNYIYPLTFGAGTKLELK | 10.5 ng/mL |
| 410H6H3 (antibody, V domains shown) VH: DVLLVESGGGLVQPGGSRKLSCAASGFTFSSSGMHWVRQAPEKGLEWVAYISSGSNTIYYADTLKGRFTISRDNPKNTLFLQMTSLRSEDTAMYYCARIYYGNSFVYWGQGTLVTVSA VL: DIVMTQSPSSLTVTAGEKVIMSCKSSQSLLNSGNQKNYLTWYQQKPGQPPKMLIYWASTRESGVPDRFRGSGSGTDFTLTISSVQAEDLAVYYCQNNYYYPLTFGTGTKLALK | 2.93 ng/mL |
| 420D5H5 (antibody, V domains shown) VH: DVQLVESGGGLVQPGGSRKLSCAASGFTLSGFGMHWIRQTPEKGLEWVAYISSGSRPIYYVDTVEGRFTISRDNPKNTLFLQMTSLRSEDTAMYFCARFYYGNSFDHWGQGTLVTVSS VL: DIVMTQSPSFLTVTAGEKVTMSCKSSQSLLNSGNQKNYLTWYQQKPGQPPKLLIYWASTRESGVPDRFTGSGSGTDFTLTIRGVQAEDLALYYCQNAYSFPLTFGAGTKLELK | 23.9 ng/mL |
| 414A5F7 (antibody, V domains shown) VH: DVQLVESGGGLVQPGGSRKLSCAASGFTFSSFGMHWVRQAPEKGLEWVAYISSGSSPIYYADTVKGRFTISRDNPKNTLFLQMTSLRSEDTAMYFCARIYYGNSFAYWGQGTLVTVSA VL: DIVMTQSPSSLTVTAGEKVAMSCKSSQTLLNSGNQKNYLTWYQQKPGQPPKLLLYWASTRESGVPDRFTGSGSGTDFTLTISSVQAEDLAVYYCQNAYYYPLTFGSGTKLELK | 8.05 ng/mL |
| 413C12F8 (antibody, V domains shown) VH: DVQLVESGGGLVQPGGSRKLSCAASGFTFSGFGVHWIRQTPEKGLEWVAYIGSGSRPIYYADTVKGRFTISRDNPKNTLFLQMTSLRSEDTAMYFCARFYYGNSFDHWGQGTLVTVSA VL: DIVMTQSPSFLTVTAGEKVTMNCRSSQSLLNSGNQKNYLTWYQQRPGQPPKLLIYWASTRESGVPDRFTGSGSGTDFTLTISSVQAEDLALYYCQNAYSFPLTFGAGTKLELK | 6.82 ng/mL |
| 418B8B10 (antibody, V domains shown) VH: DVQLVESGGGLVQPGGSRKLSCAASGFTFSSFGMHWVRQAPEKGLEWVAYISSGSSPIYYTDTVKGRFTISRDNPKNTLFLQMTSLRSEDTAMYFCARFYYGNSFDHWGQGTLVTVSA VL: DIVMTQSPSSLTVTAGEKVSMSCKSSQSLFNRGNQKSYLTWYQQRPGQPPKLLIYWASTRESGVPDRFTGSGSGTDFTLTISSVQAEDLAVYYCQNNYIYPLTFGAGTKLELK | 8.87 ng/mL |
| 409D1A7 (antibody, V domains shown) VH: DVQLVESGGGLVQPGGSRKLSCAASGFTFSGFGMHWIRQTPEKGLEWVAYISSGSRPIYYADTVKGRFTISRDNPKNTLFLHMTSLRSEDTAMYFCARFYYGNSFDHWGQGTLVTVSA VL: DIVMTQSPSFLTVTAGEKVTMNCKSSQSLLNSGNQRNYLTWYQQKPGQPPKLLIYWASTRESGVPDRFTGSGSGTDFTLTISSVQAEDLALYYCQNAYSFPLTFGAGTKLELN | 7.75 ng/mL |
| 411G3E10 (antibody, V domains shown) VH: DVQLVESGGGLVQPGGSRKLSCAASGFTFSGFGMHWIRQTPEKGLEWVAYISSGSRPIYYADTVKGRFTISRDNPKNTLFLQMTSLRSEDTAMYFCARFYYGNSFDHWGQGTLVTVSA VL: DIVMTQSPSFLTVTAGEKVTMNCRSSQSLLNSGNQKNYLTWYQQKPGQPPKLLIYWASTRESGVPDRFTGSGSGTDFTLTISSVQAEDLALYYCQNAYSFPLTFGAGTKLELK | 5.43 ng/mL |
| 203A6C9 (antibody, V domains shown) VH: QVQLKQSGPGLVQPSQSLSITCTVSGFSLTRYGVHWVRQSPGKGLEWLGVIWSGGNTDYNAAFISRLNIRKDNSKSQVFFKMNSLKPNDTAIYYCARAAYFGNSFDYWGQGTTLTVSS VL: DIVMTQSPSSLPVTAGEKVTMSCKSSQSLLNSGNQKNYLTWYQQKPGQPPKLLIYWASTRDSGVPDRFTGSGSGTDFTLTISSVQAEDLAVYYCQNNYIYPLTFGAGTKLELK | 65.4 ng/mL |
| 412B6E4 (antibody, V domains shown) VH: DVQLVESGGGLVQPGGSRKLSCAASGFTFSSFGVHWVRQAPEKGLEWVAYISSGSSTIYYAHSVKGRFTISRDNPKNTLFLQMTSLGSEDTATYYCARFYYGNSFAYWGQGTLVTVSA VL: DIVMTQSPSSLTVTAGEKVTMSCKSSQSLLNSGNQKNYLTWYQQKPGQPPKMLIYWASTRESGVPDRFTGSGSGTDFTLTISSVQAEDLAVYYCQNAYTYPLTFGAGTRLELK | 6.31 ng/mL |
| 414H6G2 (antibody, V domains shown) VH: DVQLVESGGGLVQPGGSRKLSCAASGFTFSGFGMHWIRQTAEKGLEWVAYISSGSRPIYYADTVQGRFTISRDNPKNTLFLQMTSLRSEDTAMYFCARFYYGNSFDHWGQGTLVTVSA VL: DIVMTQSPSFLTVTAGEKVTMSCKSSQSLLNSGNQKNYLTWYQQKPGQPPKLLIYWASTRESGVPDRFTGSGSGTDFTLTISSVQAEDLALYYCQNAYSFPLTFGAGTKLELK | 11.6 ng/mL |
| 417A6F11 (antibody, V domains shown) VH: EVQLQQSGPELVKPGASMKISCKASGYSFTGYTMNWVKQSHGKNLEWIGLINPYNGGTSYNQKFKGKATLTVDKSSSTAYMELLSLTSEDSAVYYCARGDYWGQGTTLTVSS VL: DIVMTQSPSSLTVTAGEKVTMSCKSSQSLLNSGNQKNYLTWYQQKPGQPPKLLIYWASTRESGVPDRFTGSGSGTDFTLTISSVQAEDLAVYYCQNDYSYPTFGAGTKLELK | 42.8 ng/mL |
| 420F12G8 (antibody, V domains shown) VH: DVQLVESGGGLVQPGGSRKLSCAASGFAFSGFGMHWIRQTPEKGLEWVAYISSGSRPIYYADTVKGRFTISRDNPKNTLFLQMTSLRSEDTAMYFCVRFYYGNSFDHWGQGTLVTVSA VL: DIVMTQSPSFLTVTAGEKVTMTCRSSQNLLNSGNQKNYLTWYQQKPGQPPKLLISWASTRESGVPDRFTGSGSGTDFTLTISSVQPEDLALYYCQNAYSFPFTFGAGTKLELK | 17.6 ng/mL |
| 201F4H6 (antibody, V domains shown) VH: QVQLKESGPGLVAPSQSLSITCTVSGFSLTSYGVSWVRQPPGKGLECLGVIWAGGNTNYNSALMSRLSISKDKSKSQVFLKMNSLQTDDTAMYYCARVYYGNAMDYWGQGTSVTVSS VL: DIVMTQSPSSLTVTAGEKVTMSCKSSQSLLNSGNQKSYLTWYQQRPGQPPKLLIYWASTRESGVPDRFTGSGSGTDFTLTISSVQAEDLAVYFCQNVYFFPFTFGSGTKLETK | 119 ng/mL |

The next lines start with the values.

| EC50 | Binder |
| --- | --- |
| 11.5 ng/mL | 416F12F3 (antibody, V domains shown) VH: DVQLVESGGGLVQPGGSRKLSCAASGFTFSSFGMHWVRQAPEKGLEWVAYISSGSSTIYYAHSVKGRFTISRDNPKNTLFLQMTSLGSEDTAMYYCARFYYGNSFAYWGQGTLVTVSA VL: DIVMTQSPSSLTVTAGEKVTLSCKSSQSLLNSGNQKNYLTWYQQKPGQPPKMLIYWASTRESGVPDRFTGSGSGTDFTLTISSVQAEDLAVYYCQNAYTYPLTFGAGTRLELK |
| 20.8 ng/mL | 410A9A9 (antibody, V domains shown) VH: DVQLVESGGGLVQPGGSRKLSCAASGFTFSSFGMHWVRQAPEKGLEWVAYISSGSSPIYYADTVKGRFTISRDNPKNTLFLQMTSLRSEDTAMYFCATFYYGNSFAYWGQGTLVTVSA VL: DIVMTQSPSSLTVTAGEKVTMSCKSSQTLLNSGNQKNYLTWYQQKSGQPPKLLIYWASTRESGVPDRFTGSGSGTDFTLTISSVQAEDLAVYYCQNAYSYPVTFGSGTKVELK |
| 3.46 ng/mL | 413B1C9 (antibody, V domains shown) VH: DVQLVESGGGLVQPGGSRKLSCAASGFTFSSFGMHWVRQAPEKGLEWVAYISSGSSPIYYADTVKGRFTISRDNPKNTLFLQMTSLRSEDTAMYFCARFYYGNSFDHWGQGTLVTVSA VL: DIVMTQSPSSLTVTTGEKVSMSCKSSQSLFNRGNQKSYLTWYQQKPGQPPKLLIYWASTRESGVPDRFTGSGSGTDFTLTISSVQAEDLAVYYCQNNYIYPLTFGAGTKLELK |
| 9.45 ng/mL | 411B4G4 (antibody, V domains shown) VH: DVQLVESGGGLVQPGGSRKLSCAASGFTFSGFGLHWIRQTPEKGLEWVAYISSGSRPIYYADTVKGRFTISRDNPKNTLFLQMTSLRSEDTAMYFCARFYYGNSFDHWGQGTLVTVSA VL: DIVMTQSPSFLTVTAGEKVTMSCRSSQSLLNSGNQRNYLTWYQQKPGQPPKLLIYWASTRESGVPDRFTGSGSGTDFTLTISSVQAEDLALYYCQNAYSFPLTFGAGTKLELK |
| 6.53 ng/mL | 419A10D4 (antibody, V domains shown) VH: DVQLVESGGGLVQPGGSRKLSCAASGFTFSGFGMHWIRQTPEKGLEWVAYISSGSRPIYYADTVKGRFTISRDNPKNTLFLQMTSLRSEDTAMYFCARFYYGNSFDHWGQGTLVTVSA VL: DIVMTQSPSFLTVTAGEKVTMSCKSSQSLLNSGNQRNYLTWYQQKPGQPPKLLIYWASTRESGVPDRFTGSGSGTDFTLTVSSVQAEDLALYYCQNAYSFPLTFGAGTKLELK |
| 9.52 ng/mL | 409G10G6 (antibody, V domains shown) VH: DVQLVESGGGLVQPGGSRKLSCAASGFTFSGFGMHWIRQTPEKGLEWVAYISSDSRPIYYADTVKGRFTISRDNPKNTLFLQMTSLRSEDTAMYFCGRFYYGNSFDHWGQGTLVTVSA VL: DIVMTQSPSFLTVTAGEKVTLSCRSSQSLLNSGNQRNYLTWYQQKPGQPPKLLIYWASTRESGVPDRFTGSGSGTDFTLTISSVQAEDRALYYCQNAYSFPLTFGTGTKLELR |
| 6.74 ng/mL | 411A6E3 (antibody, V domains shown) VH: DVQLVESGGGLVQPGGSRKLSCAASGFTFSDFGMHWIRQTPEKGLEWVAYISSGSRPIYYADTVKGRFTISRDNPKNTLFLQMTSLRSEDTAMYFCVRFYFGNSFDHWGQGTLVTVSA VL: DIVMTQSPSFLTVTAGEKVTMTCRSSQNLLNSGNLKNYLTWYQQKPGQPPKLLISWASTRESGVPDRFTGSGSGTDFTLTISSVQPEDLALYYCQNAYSFPLTFGAGTKLELK |
| 5.51 ng/mL | 419A5F3 (antibody, V domains shown) VH: DVQLVESGGGLVQPGGSRKLSCAASGFTFSGFGMHWIRQTPEKGLEWVAYISSDSRPIYYADTVKGRFTISRDNPKNTLFLQMTSLRSEDTAMYFCGRFYYGNSFDHWGQGTLVTVSA VL: DIVMTQSPSFLTVTAGEKVTLSCRSSQSLLNSGNQRNYLTWYQQKPGQPPKLLIYWASTRESGVPDRFTGSGSGTDFTLTISSVQAEDRALYYCQNAYSFPLTFGTGTKLELR |
